Measured values published in patent US20260137799A1, “ANTI-MUC1* ANTIBODY DRUG COMPLEXES AND USES THEREOF” (Minerva Biotechnologies Corporation, priority 2023, published 2026).
Where a chain is given by its changes, count along the chain named.

B1: 3C2B1-deruxtecan (antibody, V domains shown)
VH: EVMLVESGGGLVKPGGSLKLSCAASGITFSTYTMSWVRQTPEKRLEWVATISTGGDKTYYSDSVKGRFTISRDNAKNNLYLQMSSLRSEDTALYYCARGTTAMYYYAMDYWGQGTSVTVSS
VL: DIVLTQSPASLAVSLGQRATISCRASKSISTSDYNYIHWYQQKPGQPPKLLIYLASNLESGVPARFSGSGSGTDFTLNIHPVEEEDAATYYCQHSRELPLTFGAGTKLELK
modifications: deruxtecan (MC-GGFG-AM-DXd) on reduced cysteine thiols of the antibody, sites not stated; deruxtecan (MC-GGFG-AM-DXd) on reduced cysteine thiols of the antibody, sites not stated; average DAR 9.2
B2: 18G12: anti-MUC1* monoclonal antibody that bound to the PSMGFR peptide (antibody, V domains shown)
VH: QVQLVQSGAEVKKPGASVKVSCKASGYTFTGYFLYWVRQAPGQGLEWIGGINPDNGGIDFNEKFRNRATLTVDKSSSTAYMELSSLRSEDTAVYYCTLLIGNYWGQGTLVTVSS
VL: DVVMTQTPSSLSVTPGQPASISCKSSQSLLHSDGKTYLIWLQQKPGQSPQRLIYLVSKLDSGVPDRFSGSGSGTDFTLKISRVEAEDVGVYYCCQGTHFPWTFGQGTKVEIK
B3: 28F9: anti-MUC1* monoclonal antibody that bound to the PSMGFR peptide (antibody, V domains shown)
VH: B2 VH with N52H, D54S, G57D, I58T, R65K, K74I, E89D, T97A, L98R, N102V
VL: B2 VL with T7S, S9L, P15L, K44R, Q50R, Y92F
modifications: humanized form

Experiments:
[1] = tested on: CFPAC1-wt pancreatic cancer cell line; assay: xCELLigence impedance cytotoxicity, CFPAC1; assay type: cell-based, human; conditions: Example 9 (FIGS. 35-36); read-out: IC50, CFPAC1-wt pancreatic cancer cells
Procedure: (§1) An xCELLigence RTCA MP Instrument (Agilent) was used to assess real-time killing of target cancer cells). In the xCELLigence system, target cancer cells, which are adherent, are plated onto electrode array 96-well plates. Adherent cells insulate the electrode and increase the impedance. The number of adherent cancer cells is directly proportional to impedance. […] Therefore, increasing impedance reflects the growth of the cancer cells and decreasing impedance reflects the killing of the cancer cells.
(§2) Target Cancer cells (Table 9) were seeded onto a multi-electrode well plate at a density of 5000 cells/well (100 μL of a 50,000 cells/mL stock) and incubated for 24 hr in a 37° C./5% CO2 incubator. ADCs were prepared as a 2× solution in corresponding growth media and 100 μL of each concentration was added to target cells. As a positive control (100% cell killing) cells were treated with either 1% triton or 1 μM Taxol instead of ADC. After 40-120 hours incubation in a 37° C./5% CO2 incubator cell killing was assessed. In this assay, impedance is measured in real-time. When the adherent cancer cells are killed and come off the electrode surface, impedance (insulation) decreases.
(§3) To directly compare the C2 and 3C2B1 anti-MUC1* antibodies as ADC targeting domains, a panel of MUC1* positive cancer cell lines representing different cancer types were treated with C2-deruxtecan versus 3C2B1-deruxtecan (FIG. 35) or C2-MC-VA-PAB-exatecan versus 3C2B1-MC-VA-PAB-exatecan (FIG. 36). In some cases, the cancer cells were engineered to express high levels of MUC1*45.

[2] = tested on: H1975-MUC1*45 cells; assay: Antibody internalization (pHrodo Deep Red), H1975-MUC1*45; assay type: cell-based, human; conditions: H1975-MUC1*45 vs H1975-wt
Procedure: (§4) Antibodies C2 and 3C2B1 were tested for their ability to be internalized by H1975 lung cancer cells (H1975-wt) and H1975 cells that were engineered to express high levels of a recombinant MUC1* polypeptide with a 45 amino acid extracellular domain (H1975-MUC1*45). In contrast to the T47D breast cancer cells, H1975-wt cells internalized 3C2B1 faster than they internalized C2 (FIGS. 4A1-4A28, 4C1-4C28 and 4E). Two (2) hours post incubation with H1975-wt cells, […] the cells had internalized C2. […] Similar to the T47D cells, MUC1*45 expression increased the internalization rate of C2 and decreased the internalization rate of 3C2B1 (FIGS. 4B1-4B28, 4D1-4D28 and 4E).
(§5) Antibodies C2 and 3C2B1 were coupled to a pH sensitive fluorophore using the pHrodo Deep Red TFP Ester kit (Thermo cat #P35356), according to manufacturer instructions. Cancer cells were seeded at ˜50,000 cells/well onto μ-Slide 8-well tissue culture-treated, chambered coverslip wells (Ibidi 80806) in their recommended media with 10% FBS. Cells were cultured for 48 hours. Slides were transferred into microscope chamber (37° C.—5% CO2) and equilibrated for ˜30 minutes. The pHrodo Deep Red coupled antibody was then diluted to a concentration of 200 to 300 μg/mL into pre-warmed media supplemented with 10% FBS. Media was removed from the chamber slides and the diluted antibodies were separately added. Fluorescent (655 nm) and phase contrast images at were collected every 10 min for 12h or 16 h with a Leica Thunder Live Cell 3D microscope.
(§6) Internalization of the fluorescently labeled antibodies was quantified as follows. Images were imported into ImageJ. The selection tool was used to draw a region of interest (ROI) on the image. The integrated pixel density (mean gray-scale value×area) was then measured by the ImageJ software. Positively-stained cells were manually counted and the integrated pixel density was divided by the number of positive cells to yield “Pixel Intensity per positive cell”.

[3] = biological target: MUC1*45 (UniProt P15941 1110-1255); assay: cell-based or functional assay
[4] = tested on: HPAF-II; assay: xCELLigence impedance cytotoxicity, HPAF-II; assay type: cell-based, human; conditions: Example 9 (FIG. 35); average; listed as 3C2B1-MC-GGFG-AM-DXd; read-out: IC50 for killing of HPAFII-wt pancreatic cancer cells
Procedure: as §1, §2

[5] = tested on: T47D; assay: xCELLigence impedance cytotoxicity, T47D; assay type: cell-based, human; conditions: Example 9 (FIGS. 35-36); average over batches for DXd ADCs; read-out: IC50 for killing of breast cancer T47D-wt cells
Procedure: as §1, §2

[6] = tested on: H2110-wt lung cancer cell line; assay: xCELLigence impedance cytotoxicity, H2110; assay type: cell-based, human; conditions: Example 9 (FIGS. 35-36); read-out: IC50, lung cancer H2110-wt cells
Procedure: as §1, §2, §3

[7] = tested on: HPAF-II MUC1*; assay: xCELLigence impedance cytotoxicity, HPAF-II MUC1*; assay type: cell-based, human; conditions: Example 9 (FIG. 35); average; read-out: IC50, HPAFII cells engineered to express MUC1*45
Procedure: as §1, §2

[8] = tested on: H1975 lung cancer cells (H1975-wt); assay: Antibody internalization (pHrodo Deep Red), H1975-wt; assay type: cell-based, human; conditions: H1975 cells
Procedure: as §4, §5, §6

[9] = tested on: MUC1 after cleavage by MMP9; assay: Binding to MUC1-expressing cells after MMP9 cleavage; assay type: cell-based
Procedure: The binding strength of anti-MUC1* antibodies is evaluated by determining their ability to displace NMF7-AB (a MUC1* ligand) from MUC1* immobilized on the plastic surface of a 96-well plate. Because the cancer-selective MUC1* epitope is a conformational epitope, cancer-selective anti-MUC1* antibodies should not recognize MUC1* on a western blot, where the epitope is linearized. MMP9 is a protease that cleaves MUC1 to generate MUC1*. MMP9 is a predictor of poor prognosis for breast cancers. Some cancer-selective anti-MUC1* antibodies, particularly breast cancer selective antibodies, should bind to cells engineered to express MUC1 after they are contacted with MMP9 to convert the MUC1 to MUC1*.

[10] = biological target: PSMGFR C-10 peptide (SEQ ID NO: 3) (Homo sapiens, UniProt P15941); assay: ELISA binding to PSMGFR C-10 peptide; conditions: ELISA
Description: Cancer selective anti-MUC1* antibodies bind to a membrane proximal conformational epitope within the MUC1* extracellular domain, as described in WO 2020/146902.
The 3C2B1 epitope was mapped more precisely with additional PSMGFR peptide variants (FIGS. 2A, 2B).

Sequence of PSMGFR C-10 peptide (SEQ ID NO: 3) (P15941 1110-1144 limits assumed): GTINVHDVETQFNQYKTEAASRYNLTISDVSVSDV
Sequence of MUC1 after cleavage by MMP9 (P15941 1120-1255 limits assumed): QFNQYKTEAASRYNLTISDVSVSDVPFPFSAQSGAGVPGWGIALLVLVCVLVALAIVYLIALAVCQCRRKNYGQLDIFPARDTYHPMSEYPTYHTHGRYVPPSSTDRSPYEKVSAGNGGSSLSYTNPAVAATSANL

| Molecule | IC50 [1] | effect of MUC1*45 expression on internalization rate [2] | IC50, killing of H1975 lung cancer cells engineered to express MUC1*45 (xCELLigence) [3] | IC50, killing of T47D breast cancer cells engineered to express more MUC1*45 (xCELLigence) [3] | IC50 [4] | IC50 [5] | IC50 [6] | IC50 [7] | internalization rate of the ADC compared to antibody alone [8] | Recognizes MUC1 after cleavage by MMP9 [9] | Does not bind C-10 [10] |
| --- | --- | --- | --- | --- | --- | --- | --- | --- | --- | --- | --- |
| B1 | 34 nM | inhibited | 343 nM | 48 nM | > 303 nM | 61 nM | 90 nM | 160 nM | about the same rate as the 3C2B1 antibody alone |  |  |
| B2 |  |  |  |  |  |  |  |  |  | 0 | 0 |
| B3 |  |  |  |  |  |  |  |  |  | 0 | 0 |
